Measured values published in the supplement of paper PMC12764529.
± gives the half width of the 95% confidence interval.

Columns and labels:
[1] = folding stability dG unfold from chymotrypsin proteolysis; higher = more stable
In short: (§1)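 K50 was inferred by Bayesian fitting of sequencing counts obtained after protease digestion of designed mini-proteins. Unfolding free energy was derived by comparison with a sequence-predicted unfolded-state K50 and a shared folded-state K50, for each protease or both combined. The mini-proteins were under 80 residues, had no cysteine, were carried in a PA-tagged cDNA display construct, and were kept only if AlphaFold2 dimer inter-PAE exceeded 15.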

[2] = folding stability dG unfold from trypsin proteolysis; higher = more stable
In short: as §1

[3] = folding stability dG unfold (combined trypsin and chymotrypsin); higher = more stable
In short: as §1

Row | Sequence | folding stability dG unfold [1] | folding stability dG unfold [2] | folding stability dG unfold [3]
1 | SAGGMTIEELLKKNPELKELVKKGYVIEITYPDGKKETIKISEEDLKKILDDIKKKTNKPVEIKILPSAGGS [r16_655_TrROS_Hall] | 1.82 ± 0.17 kcal/mol | 1.05 ± 0.081 kcal/mol | 1.54 ± 0.32 kcal/mol
2 | SAGGSAGGSAGNYMVRLEIEMPENGRKVEWMVPEDDPEEILEKFPWLKEHGMEVKIEVFPSAGGSAGGSAGG [r17_176_TrROS] | 0.638 ± 0.08 kcal/mol | 0.236 ± 0.037 kcal/mol | 0.498 ± 0.1 kcal/mol
3 | SAGGSAGGSAGSTTTTITDPANGEAYEVTSDPNGGATITNPNSSQVYYKNADTITSVGASSAGGSAGGSAGG [r17_476_JUSTAS] | -0.198 ± 0.49 kcal/mol | -0.263 ± 0.087 kcal/mol | -0.0736 ± 0.19 kcal/mol
4 | SAGGSAGGSAKPVLEVEITVEVNGKLYKVRARVELEETPDGLVLKVEVELENGEKFEFTLKLSAGGSAGGSA [r18_54_TrROS_Hall] | 5.13 ± 0.21 kcal/mol | 4.42 ± 0.26 kcal/mol | 5.11 ± 0.28 kcal/mol
5 | SASESAVVEEEYTIDVTTVTPPGTPTTEPVRLTITRLPPNTVEVTLTAPDGKTVETRVIPLSVSLEELLSAG [r14_559_JUSTAS] | 0.134 ± 0.3 kcal/mol | 0.413 ± 0.14 kcal/mol | 0.493 ± 0.16 kcal/mol
6 | SAGGSAGGSAGWLMIMFPIPPNADNVRIKWPDGPTQEHEMEPGSPVMIMIPPGNIKIEVDSAGGSAGGSAGG [r11_52_TrROS] | 1.24 ± 0.091 kcal/mol | 1.13 ± 0.054 kcal/mol | 1.21 ± 0.1 kcal/mol
7 | SAGGSAGGGMSFTLTSEKKVPGVNVTLTTVTGPGVTITYDPATGKATVEFPDSVTTVPLSSITTSAGGSAGG [r6_512_JUSTAS] | 0.359 ± 0.16 kcal/mol | 0.573 ± 0.024 kcal/mol | 0.597 ± 0.099 kcal/mol
8 | SAGGSAGGSAGSPLAQAVIDELKAQGYTVEAVTVTQPPGNAPVVVVTVKKPDGTRVVIDLSAGGSAGGSAGG [r11_780_JUSTAS] | 2.182 ± 0.016 kcal/mol | 2.74 ± 0.12 kcal/mol | 2.39 ± 0.07 kcal/mol
9 | SAGGSAGGSAGGEEEYVTLTIKVYDPKTREPVKEITIVLPKKNMTPEQLRELLKELGIEVSAGGSAGGSAGG [r7_903_TrROS_Hall] | 3.01 ± 0.083 kcal/mol | 2.87 ± 0.12 kcal/mol | 2.98 ± 0.23 kcal/mol
10 | SAGGSAGGSMTPANVVRIEPSPDGILRVTLTHPDGTVTTVEVSPDNLDIGAPDNVTDVTLAPVSAGGSAGGS [r20_194_TrMRF] | 1.72 ± 0.023 kcal/mol | 0.932 ± 0.026 kcal/mol | 1.44 ± 0.028 kcal/mol
11 | SAGGSAGGKKIEMKIIKNEDGTKLIVFKSKEEAEEALKKAGYEVKIVSVNEEKGYVVIEIRKKKSAGGSAGG [r6_510_TrROS_Hall] | 2.21 ± 0.04 kcal/mol | 1.17 ± 0.043 kcal/mol | 1.9 ± 0.072 kcal/mol
12 | SIKLSNGETIEYEPSPNKTYTIKHPDGRVVKILKVEREKDKYTVEIQFDDGSTKTIEIPPDKPEIIEKELLS [r1_66_JUSTAS] | 0.951 ± 0.08 kcal/mol | 1.37 ± 0.027 kcal/mol | 1.24 ± 0.12 kcal/mol
13 | SAGGSAGGSAAAPPPPTITITVEVRTLPDGTVEITATATLPDGTTLTVTLRINADGSLTATSAGGSAGGSAG [r3_259_TrROS_Hall] | 3.4 ± 0.17 kcal/mol | 1.91 ± 0.13 kcal/mol | 3.17 ± 0.23 kcal/mol
14 | SAMDFPPGSTATIKVEVKNPDNTKTETYEIEVPVDPETGKAITLEDLKEALEKLGVNPENVKIVDIKVGSAG [r14_93_TrMRF] | 2.25 ± 0.2 kcal/mol | 3.18 ± 0.22 kcal/mol | 2.72 ± 0.27 kcal/mol
15 | SAGGSAGGMKEVIEAALKDGSKEFYAPGFSPDKVYDVKITVYPGEGKVEIEVEGKRFTVSPEDLSAGGSAGG [r6_749_TrMRF] | 0.765 ± 0.18 kcal/mol | 1.48 ± 0.14 kcal/mol | 1.11 ± 0.23 kcal/mol
16 | SAGGSMTIKINGAEITDIEVRDDGTIRIKVRVTNENGEEVEVTLEIRIEPAPPVEVVHPDDPEALESAGGSA [r2_368_TrROS_Hall] | 2.45 ± 0.066 kcal/mol | 3.09 ± 0.16 kcal/mol | 2.73 ± 0.097 kcal/mol
17 | SAGGSAGGSTLKLEIVNEDGYKVEIEAELELVEKDGKLVLKLKVKIKVEPAKEVKEVKVELPESAGGSAGGS [r12_581_TrROS_Hall] | 3.87 ± 0.2 kcal/mol | 1.95 ± 0.16 kcal/mol | 3.45 ± 0.44 kcal/mol
18 | SAKEEYYKVRIYFPETNEVVEIEAKSEEEALEALKKLLNEPNIVKIEIEKVEVEEEPEEKEYSEEELKSSAG [r14_747_TrROS_Hall] | 2.39 ± 0.046 kcal/mol | 2.02 ± 0.04 kcal/mol | 2.32 ± 0.12 kcal/mol
19 | SAGGKKHYLVKVKATLTDKNGKKIAEVEFIFHFESPEELEEALKSIPSKYITEVKILSIEEIPEEEFSAGGS [r16_677_TrMRF] | 3.65 ± 0.091 kcal/mol | 3.36 ± 0.18 kcal/mol | 3.55 ± 0.18 kcal/mol
20 | SAGGEIERDPNGWIRMTYTLPGFGYKIEITFRVPDNGMMQIEDIDIEPIPPVPPPPPPKYDPNGEWKYSAGG [r13_646_TrROS] | 2.25 ± 0.041 kcal/mol | 1.64 ± 0.08 kcal/mol | 2.02 ± 0.17 kcal/mol
21 | SAGGSAGGSAGPVPKTITVTVSSPEEAEAAVKEIKPKYPNVKVERKKVGDKIVLTITVEESAGGSAGGSAGG [r17_319_JUSTAS] | 1.88 ± 0.093 kcal/mol | 1.86 ± 0.11 kcal/mol | 1.75 ± 0.16 kcal/mol

Row | Sequence | folding stability dG unfold [1] | folding stability dG unfold [2] | folding stability dG unfold [3]
22 | GPEVLVETFVDPETGRVVVRVYFPEPDRLVLAVGERGGDGVRVLVVEYEADPLEPRFAEFEFPALPEGFDES [r1_404_TrMRF] | 2.59 ± 0.054 kcal/mol | 2.52 ± 0.14 kcal/mol | 2.44 ± 0.092 kcal/mol
23 | SAELLEELLKKAREEAEKEGKKVEIHLVLVVEKDENGKVTFTEEEKELIKKLKEAFPDVEIKIEVVELPSAG [r14_636_TrROS_Hall] | 3.45 ± 0.16 kcal/mol | 2.83 ± 0.18 kcal/mol | 3.28 ± 0.13 kcal/mol
24 | SAGGSAMVVIRTTKPGGKVEVLAVNPEDGSKTVKTFSSSTSPKEVFEEVNKEFGGEVKVEKVELKASAGGSA [r15_544_TrMRF] | -0.912 ± 0.58 kcal/mol | -0.439 ± 0.18 kcal/mol | -0.512 ± 0.18 kcal/mol
25 | SAGGSPPFRIKIDEIEILPNGIIQVTFKIDNGWPMTILIQMDPDGKVTIEIQFPGNGQPFEFELPISAGGSA [r2_361_TrROS] | 3.52 ± 0.07 kcal/mol | 2.56 ± 0.14 kcal/mol | 3.27 ± 0.23 kcal/mol
26 | SAKKAEEIAEKVEKTIKEAAKEKGYDVNIKVKATKGKDGKVTVYIDFDSPENAKEFIEKLPKSVNVVIASAG [r14_491_TrMRF] | 1.42 ± 0.059 kcal/mol | 1.3 ± 0.052 kcal/mol | 1.41 ± 0.11 kcal/mol
27 | SAGMSMSVSVTKDPNSNSITIKVTMPVEPDAVLDLPIKVEVPEKEYEMTVEVTLSPDGLASMTGTITLPSAG [r5_596_JUSTAS] | 2.04 ± 0.056 kcal/mol | 2.74 ± 0.15 kcal/mol | 2.41 ± 0.18 kcal/mol
28 | SAGGMVTLTLPSPDGSTLTVTVEKDPNADYYRATVTTHHPDGTVTVTESVIHPDGTTTTLATTTLPASAGGS [r16_213_JUSTAS] | 2.22 ± 0.04 kcal/mol | 2.11 ± 0.08 kcal/mol | 2.23 ± 0.12 kcal/mol
29 | SAGGSAGGSAGKKKLRLTLPGAEVEYDAATNELTIRLKAPPPPPKTTTKVETKTVLLPGKSAGGSAGGSAGG [r11_149_TrROS_Hall] | 1.2 ± 0.095 kcal/mol | 0.792 ± 0.076 kcal/mol | 0.989 ± 0.18 kcal/mol
30 | SAGGKKIEIKEGDTVKLKNATITLNGKTFKIKDAEAKVVKVDKKKKKVIIEITLKNGKKETFVFDIKSAGGS [r8_215_TrROS_Hall] | 3.331 ± 0.026 kcal/mol | 2.4 ± 0.13 kcal/mol | 3.15 ± 0.16 kcal/mol
31 | SAGGSAGGSPNTIEIWIQIPPGDPEKVEEIAKKLRDEGFKDIKVDEVHRNPDDSYYVEIKITVSAGGSAGGS [r12_91_TrROS] | 1.12 ± 0.025 kcal/mol | 1.55 ± 0.12 kcal/mol | 1.42 ± 0.083 kcal/mol
32 | SAMVITIHPDIPLEELAELLGFPEIEDATVEPLNEGIVPATFHIPEDPDKVILIDFNPEPDFALVLVLSSAG [r14_713_TrMRF] | 2.25 ± 0.038 kcal/mol | 1.59 ± 0.067 kcal/mol | 1.98 ± 0.17 kcal/mol
33 | SAGGSAGGSAGLDNIKPEELKKLFPGYKVYLLKVEEVGGKLKVDVKILKYNPSTNTWTPESAGGSAGGSAGG [r11_20_TrMRF] | 1.59 ± 0.14 kcal/mol | 1.13 ± 0.044 kcal/mol | 1.48 ± 0.11 kcal/mol
34 | SAGDAEEIAKKIEEAAREEFAARLGYPDLEILKVEVLEVDPVTGRVRVRVTVRLPDGRLLEAEFEVPVASAG [r5_20_TrMRF] | 3.41 ± 0.06 kcal/mol | 3.83 ± 0.06 kcal/mol | 3.65 ± 0.065 kcal/mol
35 | SAGGSAGGSLKPGQPYIMIRIKIQHPNGNTRTFNIMVPWNDIPQILDFLESHGFKIKDIEIFPSAGGSAGGS [r12_986_TrROS] | 5.42 ± 0.17 kcal/mol | 3.94 ± 0.21 kcal/mol | 5.09 ± 0.2 kcal/mol
36 | SAGGSAGGSAGNKDYPVIEVTYPFPPGAPASDIKDFAEPFGFESIEFDDNGTVKVYFYLPSAGGSAGGSAGG [r11_961_TrROS] | 0.818 ± 0.11 kcal/mol | 0.737 ± 0.051 kcal/mol | 0.825 ± 0.087 kcal/mol
37 | SAGGSAGGSKAEVVEEKEIFTFPNGFVIKLTKVKNENGEEFEFIEIVPLPPELTEEELKKLKESAGGSAGGS [r12_775_TrROS_Hall] | 2.14 ± 0.023 kcal/mol | 0.711 ± 0.033 kcal/mol | 1.79 ± 0.065 kcal/mol
38 | SAGGSAGGSAGTVIRVRDKNGKIVEISLEEAAELLGIPPSELTLEDIVKAFAEKVDSIEILSSAGGSAGGSA [r18_403_TrMRF] | 2.3 ± 0.038 kcal/mol | 3.6 ± 0.1 kcal/mol | 2.91 ± 0.064 kcal/mol
39 | MKPLTPEEVKKIAEGIAKEIEKAAKALGIDKVEVPVKIEKLPDGGYKIIIEVKLYKDDKKIGTFPIEIYIDS [r1_364_TrMRF] | 3.1 ± 0.14 kcal/mol | 3.51 ± 0.34 kcal/mol | 2.9 ± 0.39 kcal/mol
40 | SAGGEEVKTIKVTLAFYNPETGELVAEVEATATLVDGKLVLTTTVTFRPAPAGEPVTVTVTVVEPEESAGGS [r16_327_TrROS_Hall] | 3.63 ± 0.13 kcal/mol | 2.93 ± 0.39 kcal/mol | 3.39 ± 0.24 kcal/mol
41 | SAGGSAGGSAGGLVPPDAVIPTETTAEEPVYVIDPVTGELTPIGPGVVRRKITRRVPRPSAGGSAGGSAGGS [r10_1115_JUSTAS] | 0.863 ± 0.056 kcal/mol | -0.968 ± 0.22 kcal/mol | 0.514 ± 0.11 kcal/mol
42 | SAGMKVIEIDVPVSKIEEVKEELEAEAKEKGLNIKFEKLEKLPGNKYKMIVTVTDPTSNEKTIYNINILSAG [r5_41_JUSTAS] | 4.08 ± 0.051 kcal/mol | 3.83 ± 0.27 kcal/mol | 4.06 ± 0.12 kcal/mol
